Experimental data published in the Immune Epitope Database (IEDB).

Assays:
Experiment in all cases: IEDB peptide-MHC binding, purified MHC/competitive/radioactivity; ≥ and ≤ were set here for values at or beyond the usual limits of such assays
HLA-A*02:01 = target: HLA-A*02:01
HLA-A*68:02 = target: HLA-A*68:02
HLA-A*02:06 = target: HLA-A*02:06
HLA-A*02:03 = target: HLA-A*02:03
HLA-A*02:02 = target: HLA-A*02:02
[1] = source organism: Vaccinia virus WR
[2] = source organism: Hepacivirus hominis
[3] = source organism: Influenza A virus

Sequence	IC50 (HLA-A*02:01; [1])	IC50 (HLA-A*68:02; [1])	IC50 (HLA-A*02:06; [1])	IC50 (HLA-A*02:03; [1])	IC50 (HLA-A*02:02; [1])	other results
DVFRPLFDFV	1.65 µM	0.18 µM	0.232 µM	2.57 µM	1.02 µM	
LALKNSQAEL	3.76 µM	3.66 µM	1.25 µM	0.333 µM	0.741 µM	
LLFLVLIML						IC50 (HLA-A*02:01; source organism: SARS-CoV1): 0.294 µM; IC50 (HLA-A*68:02; source organism: SARS-CoV1): 1.25 µM; IC50 (HLA-A*02:06; source organism: SARS-CoV1): 0.573 µM; IC50 (HLA-A*02:03; source organism: SARS-CoV1): 1.37 µM; IC50 (HLA-A*02:02; source organism: SARS-CoV1): 0.154 µM
ALIARCWYL						IC50 (HLA-A*02:01; source organism: SARS-CoV1): 0.00046 µM; IC50 (HLA-A*68:02; source organism: SARS-CoV1): 1.27 µM; IC50 (HLA-A*02:06; source organism: SARS-CoV1): 0.00098 µM; IC50 (HLA-A*02:03; source organism: SARS-CoV1): 0.017 µM; IC50 (HLA-A*02:02; source organism: SARS-CoV1): 0.0002 µM
ALLSCISVPV						IC50 (HLA-A*02:01; [2]): 0.028 µM; IC50 (HLA-A*68:02; [2]): 1.27 µM; IC50 (HLA-A*02:06; [2]): 0.076 µM; IC50 (HLA-A*02:03; [2]): 0.043 µM; IC50 (HLA-A*02:02; [2]): 0.041 µM
FVDGVPFVV						IC50 (HLA-A*02:01; source organism: SARS-CoV1): 0.00097 µM; IC50 (HLA-A*68:02; source organism: SARS-CoV1): 0.168 µM; IC50 (HLA-A*02:06; source organism: SARS-CoV1): 0.00091 µM; IC50 (HLA-A*02:03; source organism: SARS-CoV1): 0.086 µM; IC50 (HLA-A*02:02; source organism: SARS-CoV1): 0.0096 µM
AITLVVISVI	0.494 µM	2.38 µM	2 µM	0.786 µM	0.406 µM	
QLMCQPILL						IC50 (HLA-A*02:01; source organism: SARS-CoV1): 0.00096 µM; IC50 (HLA-A*68:02; source organism: SARS-CoV1): 0.14 µM; IC50 (HLA-A*02:06; source organism: SARS-CoV1): 0.077 µM; IC50 (HLA-A*02:03; source organism: SARS-CoV1): 0.012 µM; IC50 (HLA-A*02:02; source organism: SARS-CoV1): 0.003 µM
WISFAISCFL						IC50 (HLA-A*02:01; [3]): 3.51 µM; IC50 (HLA-A*68:02; [3]): 0.364 µM; IC50 (HLA-A*02:06; [3]): 0.819 µM; IC50 (HLA-A*02:03; [3]): 0.355 µM; IC50 (HLA-A*02:02; [3]): 0.23 µM
NTCKPTILAT	4.41 µM	1.64 µM	3.92 µM	0.248 µM	0.46 µM	
KVLSIMAFIL	0.088 µM	2.97 µM	0.019 µM	0.684 µM	0.0023 µM	
RTFFLTQGA						IC50 (HLA-A*02:01; [3]): 3.11 µM; IC50 (HLA-A*68:02; [3]): 0.514 µM; IC50 (HLA-A*02:06; [3]): 1.99 µM; IC50 (HLA-A*02:03; [3]): 0.158 µM; IC50 (HLA-A*02:02; [3]): 2.01 µM
RVTTELNIV	0.818 µM	0.481 µM	0.046 µM	0.116 µM	2.46 µM	
RIYCSLFKNV	0.062 µM	0.549 µM	0.0071 µM	0.03 µM	0.913 µM	
ILEYLYIMRV	0.03 µM	1.35 µM	0.134 µM	0.083 µM	0.074 µM	
MMNERDVSV	0.0011 µM	0.566 µM	0.064 µM	0.00027 µM	0.00044 µM	
YLLFNHFSV	0.00027 µM	0.039 µM	0.00073 µM	0.0016 µM	0.0012 µM	
CIVQSVLRDI	1.18 µM	3.48 µM	0.849 µM	0.158 µM	0.218 µM	
